Reference: patent JP2000166574A

Biological target: 抗Fasモノクローナル抗体HFE7A (from mouse-mouse hybridoma HFE7A, FERM BP-5828)
Assay: peptide (200 μg) preincubated with HFE7A (0.25 μg), then flow cytometry on WR19L12a cells

| inhibition of binding of HFE7A to WR19L12a cells | Binder |
| --- | --- |
| 60% | KCRCKPNFFC [P110] |
| 50% | EINCTRTQNT [P100] |
